Data on 65 molecules can be found in US20180177842A1 (CANIMGUIDE THERAPEUTICS, published 2018).

Ends that are not written are not given here.

The chains are these.
T1: His-tagged P3028 (human, also: His tag, length and end not given here)
T1 construct: in solution at 0.5 ug/mL, detected with mouse anti-His antibody and rabbit anti-mouse peroxidase (rampo); also called PGE73; His-tag-P3028; not shown: His tag
T1 peptide: VFDEFKPLVEEPQNLIK

The first experiment deals with Artificial Cell Surface (ACS): biotinylated cell surface proteins of human PBMCs bound to a streptavidin column (human). The experiment in a line: adsorption on ACS column, MALDI-TOF ms.
In turn, KVPQVSTPTLVEVSR [Trypsin-generated albumin fragment, SEQ ID NO 195] registered a Percent Absorbed of 64%.

For SLHTLFGDK [Trypsin-generated albumin fragment, SEQ ID NO 200], the Percent Absorbed was 36%.

Regarding RPCFSALEVDETYVPK [Trypsin-generated albumin fragment, SEQ ID NO 198], the Percent Absorbed amounted to 42%.

For the molecule LCTVATLR [Trypsin-generated albumin fragment, SEQ ID NO 202], the Percent Absorbed amounted to 35%.

Take VFDEFKPLVEEPQNLIK [Trypsin-generated albumin fragment, SEQ ID NO 196]: the Percent Absorbed is 60%.

For YLYEIAR [Trypsin-generated albumin fragment, SEQ ID NO 203], the Percent Absorbed was determined as 34%.

Take KYLYEIAR [Trypsin-generated albumin fragment, SEQ ID NO 194]: the Percent Absorbed is 71%.

With VPQVSTPTLVEVSR [Trypsin-generated albumin fragment, SEQ ID NO 197], the Percent Absorbed was 59%.

As for CCAAADPHECYAK [Trypsin-generated albumin fragment, SEQ ID NO 204], the Percent Absorbed was 32%.

FQNALLVR [Trypsin-generated albumin fragment, SEQ ID NO 199] yielded a Percent Absorbed of 41%.

As for LKECCEKPLLEK [Trypsin-generated albumin fragment, SEQ ID NO 201], the Percent Absorbed came to 36%.

A further experiment has as its target T1, His-tagged P3028. Description: PEPSCAN ELISA, peptide on chip.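 Also: binding detected by peroxidase ELISA with ABTS, OD405 colour imaged by CCD camera before and after staining, raw OD405 reported as rampo units, air-bubble wells scored 0.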
Procedure: After washing, the peroxidase substrate 2,2′-azine-di-3-ethylbenzthiazoline sulfonate (ABTS) and 2 μL of 3% H2O2 were added. The binding capacity of the mAb was measured as a color development at 405 nm (optical density, OD405). The color development was quantified with a charge-coupled device (CCD)—camera and an image processing system.
The OD405-values obtained by a CCD-camera was considered as raw data values (“rampo values,” “rampo units,” or “rampo scores”). […] First the CCD-camera made a picture of the card before peroxidase coloring and then again a picture after the peroxidase coloring. […] These values were copied into an excel file and labeled as a raw data file. […] Sometimes a well can contain an air-bubble resulting in a false-positive value. If manual inspection of the cards detect an air-bubble the value are set to 0 for well.
KKLDTFFVKRSLFTER [SEQ ID NO 340]: the “RAMPO Score” value came out at 439 rampo units.

As for KKLDTFFVKLSLCTER [SEQ ID NO 362], the “RAMPO Score” value came to 400 rampo units.

KKLDTFFVKLSLQTER [SEQ ID NO 370]: the “RAMPO Score” value worked out at 1140 rampo units.

Consider KKLDTFFVKLSHFTER [SEQ ID NO 351], for which the “RAMPO Score” value was found to be 460 rampo units.

Consider KKLDTFFVKLSLRTER [SEQ ID NO 371], for which the “RAMPO Score” value is 502 rampo units.

For KKLDTFFVKLSLTTER [SEQ ID NO 373], the “RAMPO Score” value was 494 rampo units.

For KKLDTFFVKLSAFTER [SEQ ID NO 350], the “RAMPO Score” value is 462 rampo units.

For KKLDTFFVKLNLFTER [SEQ ID NO 347], the “RAMPO Score” value was 451 rampo units.

Consider KKLDTFFVKLSLWTER [SEQ ID NO 375], for which the “RAMPO Score” value came out at 430 rampo units.

Turning to KKLDTFFVKLSLHTER [SEQ ID NO 364], the “RAMPO Score” value worked out at 1050 rampo units.

As for KKLDTFFVKLSLVTER [SEQ ID NO 374], the “RAMPO Score” value was 446 rampo units.

Take KKLDTFFVKLSSFTER [SEQ ID NO 357]: the “RAMPO Score” value is 478 rampo units.

In the case of KKLDTFFVKLSVFTER [SEQ ID NO 359], the “RAMPO Score” value came out at 545 rampo units.

On to KKLDTFFVKLSNFTER [SEQ ID NO 354], for which the “RAMPO Score” value was determined as 462 rampo units.

Turning to KKLDTFFVKLSLITER [SEQ ID NO 365], the “RAMPO Score” value turned out to be 468 rampo units.

For the molecule KKLDTFFVKLSLFTEY [SEQ ID NO 393], the “RAMPO Score” value came to 311 rampo units.

For KKLDTFFVKLSLFPER [SEQ ID NO 383], the “RAMPO Score” value is 551 rampo units.

Take KKLDTFFVKLTLFTER [SEQ ID NO 349]: the “RAMPO Score” value came out at 520 rampo units.

Consider KKLDTFFVKYSLFTER [SEQ ID NO 344], for which the “RAMPO Score” value is 382 rampo units.

With KKLDTFFVKLSWFTER [SEQ ID NO 360], the “RAMPO Score” value was found to be 409 rampo units.

As to KKLDTFFVKLSLFSER [SEQ ID NO 384], the “RAMPO Score” value came to 369 rampo units.

As to KKLDTFFVKLSLFMER [SEQ ID NO 381], the “RAMPO Score” value was 501 rampo units.

Take KKLDTFFVKLQLFTER [SEQ ID NO 348]: the “RAMPO Score” value came to 768 rampo units.

As for KKLDTFFVKLSLFTEN [SEQ ID NO 390], the “RAMPO Score” value amounted to 311 rampo units.

As for KKLDTFFVKVSLFTER [SEQ ID NO 343], the “RAMPO Score” value was found to be 658 rampo units.

For the molecule KKLDTFFVKTSLFTER [SEQ ID NO 342], the “RAMPO Score” value stood at 399 rampo units.

Regarding KKLDTFFVKLSLPTER [SEQ ID NO 369], the “RAMPO Score” value amounted to 696 rampo units.

Consider KKLDTFFVKLSLSTER [SEQ ID NO 372], for which the “RAMPO Score” value came to 635 rampo units.

For KKLDTFFVKLMLFTER [SEQ ID NO 346], the “RAMPO Score” value was 744 rampo units.

Regarding KKLDTFFVKLSMFTER [SEQ ID NO 353], the “RAMPO Score” value is 499 rampo units.

As to KKLDTFFVKLSIFTER [SEQ ID NO 352], the “RAMPO Score” value was 456 rampo units.

Turning to KKLDTFFVKLSQFTER [SEQ ID NO 355], the “RAMPO Score” value was found to be 651 rampo units.

Regarding KKLDTFFVKLSLFLER [SEQ ID NO 380], the “RAMPO Score” value was found to be 360 rampo units.

Regarding KKLDTFFVKLSLFHER [SEQ ID NO 378], the “RAMPO Score” value came out at 463 rampo units.

As to KKLDTFFVKLSLGTER [SEQ ID NO 363], the “RAMPO Score” value was determined as 531 rampo units.

For KKLDTFFVKLSLMTER [SEQ ID NO 367], the “RAMPO Score” value came to 1190 rampo units.

For KKLDTFFVKLSLFNER [SEQ ID NO 382], the “RAMPO Score” value was 599 rampo units.

As for KKLDTFFVKLSLFTEK [SEQ ID NO 389], the “RAMPO Score” value was determined as 291 rampo units.

For KKLDTFFVKLSLLTER [SEQ ID NO 366], the “RAMPO Score” value is 448 rampo units.

For the molecule KKLDTFFVKSSLFTER [SEQ ID NO 341], the “RAMPO Score” value was 351 rampo units.

For KKLDTFFVKLSLNTER [SEQ ID NO 368], the “RAMPO Score” value is 862 rampo units.

As for KKLDTFFVKLSTFTER [SEQ ID NO 358], the “RAMPO Score” value amounted to 437 rampo units.

Consider KKLDTFFVKLHLFTER [SEQ ID NO 345], for which the “RAMPO Score” value was found to be 535 rampo units.

For KKLDTFFVKLSLFGER [SEQ ID NO 377], the “RAMPO Score” value is 343 rampo units.

Turning to KKLDTFFVKLSLFTEF [SEQ ID NO 388], the “RAMPO Score” value was found to be 297 rampo units.

KKLDTFFVKLSLFTET [SEQ ID NO 392]: the “RAMPO Score” value turned out to be 292 rampo units.

On to KKLDTFFVKLSLFVER [SEQ ID NO 385], for which the “RAMPO Score” value came to 380 rampo units.

Consider KKLDTFFVKLSLFWER [SEQ ID NO 386], for which the “RAMPO Score” value came out at 374 rampo units.

Take KKLDTFFVKLSLFIER [SEQ ID NO 379]: the “RAMPO Score” value worked out at 375 rampo units.

As for KKLDTFFVKLSLFTDR [SEQ ID NO 387], the “RAMPO Score” value was determined as 404 rampo units.

In the case of KKLDTFFVKLSRFTER [SEQ ID NO 356], the “RAMPO Score” value is 483 rampo units.

As for KKLDTFFVKLSLATER [SEQ ID NO 361], the “RAMPO Score” value was 525 rampo units.

For the molecule KKLDTFFVKLSLFFER [SEQ ID NO 376], the “RAMPO Score” value came to 348 rampo units.

Consider KKLDTFFVKLSLFTER [SEQ ID NO 391], for which the “RAMPO Score” value was 260 rampo units.
